Biological target: cardiac ryanodine receptor (RyR2) in permeabilized rat ventricular myocytes (rat (endogenous in ventricular myocytes)) (UniProt B0LPN4)
Chain of UniProt B0LPN4 (B0LPN4 whole entry): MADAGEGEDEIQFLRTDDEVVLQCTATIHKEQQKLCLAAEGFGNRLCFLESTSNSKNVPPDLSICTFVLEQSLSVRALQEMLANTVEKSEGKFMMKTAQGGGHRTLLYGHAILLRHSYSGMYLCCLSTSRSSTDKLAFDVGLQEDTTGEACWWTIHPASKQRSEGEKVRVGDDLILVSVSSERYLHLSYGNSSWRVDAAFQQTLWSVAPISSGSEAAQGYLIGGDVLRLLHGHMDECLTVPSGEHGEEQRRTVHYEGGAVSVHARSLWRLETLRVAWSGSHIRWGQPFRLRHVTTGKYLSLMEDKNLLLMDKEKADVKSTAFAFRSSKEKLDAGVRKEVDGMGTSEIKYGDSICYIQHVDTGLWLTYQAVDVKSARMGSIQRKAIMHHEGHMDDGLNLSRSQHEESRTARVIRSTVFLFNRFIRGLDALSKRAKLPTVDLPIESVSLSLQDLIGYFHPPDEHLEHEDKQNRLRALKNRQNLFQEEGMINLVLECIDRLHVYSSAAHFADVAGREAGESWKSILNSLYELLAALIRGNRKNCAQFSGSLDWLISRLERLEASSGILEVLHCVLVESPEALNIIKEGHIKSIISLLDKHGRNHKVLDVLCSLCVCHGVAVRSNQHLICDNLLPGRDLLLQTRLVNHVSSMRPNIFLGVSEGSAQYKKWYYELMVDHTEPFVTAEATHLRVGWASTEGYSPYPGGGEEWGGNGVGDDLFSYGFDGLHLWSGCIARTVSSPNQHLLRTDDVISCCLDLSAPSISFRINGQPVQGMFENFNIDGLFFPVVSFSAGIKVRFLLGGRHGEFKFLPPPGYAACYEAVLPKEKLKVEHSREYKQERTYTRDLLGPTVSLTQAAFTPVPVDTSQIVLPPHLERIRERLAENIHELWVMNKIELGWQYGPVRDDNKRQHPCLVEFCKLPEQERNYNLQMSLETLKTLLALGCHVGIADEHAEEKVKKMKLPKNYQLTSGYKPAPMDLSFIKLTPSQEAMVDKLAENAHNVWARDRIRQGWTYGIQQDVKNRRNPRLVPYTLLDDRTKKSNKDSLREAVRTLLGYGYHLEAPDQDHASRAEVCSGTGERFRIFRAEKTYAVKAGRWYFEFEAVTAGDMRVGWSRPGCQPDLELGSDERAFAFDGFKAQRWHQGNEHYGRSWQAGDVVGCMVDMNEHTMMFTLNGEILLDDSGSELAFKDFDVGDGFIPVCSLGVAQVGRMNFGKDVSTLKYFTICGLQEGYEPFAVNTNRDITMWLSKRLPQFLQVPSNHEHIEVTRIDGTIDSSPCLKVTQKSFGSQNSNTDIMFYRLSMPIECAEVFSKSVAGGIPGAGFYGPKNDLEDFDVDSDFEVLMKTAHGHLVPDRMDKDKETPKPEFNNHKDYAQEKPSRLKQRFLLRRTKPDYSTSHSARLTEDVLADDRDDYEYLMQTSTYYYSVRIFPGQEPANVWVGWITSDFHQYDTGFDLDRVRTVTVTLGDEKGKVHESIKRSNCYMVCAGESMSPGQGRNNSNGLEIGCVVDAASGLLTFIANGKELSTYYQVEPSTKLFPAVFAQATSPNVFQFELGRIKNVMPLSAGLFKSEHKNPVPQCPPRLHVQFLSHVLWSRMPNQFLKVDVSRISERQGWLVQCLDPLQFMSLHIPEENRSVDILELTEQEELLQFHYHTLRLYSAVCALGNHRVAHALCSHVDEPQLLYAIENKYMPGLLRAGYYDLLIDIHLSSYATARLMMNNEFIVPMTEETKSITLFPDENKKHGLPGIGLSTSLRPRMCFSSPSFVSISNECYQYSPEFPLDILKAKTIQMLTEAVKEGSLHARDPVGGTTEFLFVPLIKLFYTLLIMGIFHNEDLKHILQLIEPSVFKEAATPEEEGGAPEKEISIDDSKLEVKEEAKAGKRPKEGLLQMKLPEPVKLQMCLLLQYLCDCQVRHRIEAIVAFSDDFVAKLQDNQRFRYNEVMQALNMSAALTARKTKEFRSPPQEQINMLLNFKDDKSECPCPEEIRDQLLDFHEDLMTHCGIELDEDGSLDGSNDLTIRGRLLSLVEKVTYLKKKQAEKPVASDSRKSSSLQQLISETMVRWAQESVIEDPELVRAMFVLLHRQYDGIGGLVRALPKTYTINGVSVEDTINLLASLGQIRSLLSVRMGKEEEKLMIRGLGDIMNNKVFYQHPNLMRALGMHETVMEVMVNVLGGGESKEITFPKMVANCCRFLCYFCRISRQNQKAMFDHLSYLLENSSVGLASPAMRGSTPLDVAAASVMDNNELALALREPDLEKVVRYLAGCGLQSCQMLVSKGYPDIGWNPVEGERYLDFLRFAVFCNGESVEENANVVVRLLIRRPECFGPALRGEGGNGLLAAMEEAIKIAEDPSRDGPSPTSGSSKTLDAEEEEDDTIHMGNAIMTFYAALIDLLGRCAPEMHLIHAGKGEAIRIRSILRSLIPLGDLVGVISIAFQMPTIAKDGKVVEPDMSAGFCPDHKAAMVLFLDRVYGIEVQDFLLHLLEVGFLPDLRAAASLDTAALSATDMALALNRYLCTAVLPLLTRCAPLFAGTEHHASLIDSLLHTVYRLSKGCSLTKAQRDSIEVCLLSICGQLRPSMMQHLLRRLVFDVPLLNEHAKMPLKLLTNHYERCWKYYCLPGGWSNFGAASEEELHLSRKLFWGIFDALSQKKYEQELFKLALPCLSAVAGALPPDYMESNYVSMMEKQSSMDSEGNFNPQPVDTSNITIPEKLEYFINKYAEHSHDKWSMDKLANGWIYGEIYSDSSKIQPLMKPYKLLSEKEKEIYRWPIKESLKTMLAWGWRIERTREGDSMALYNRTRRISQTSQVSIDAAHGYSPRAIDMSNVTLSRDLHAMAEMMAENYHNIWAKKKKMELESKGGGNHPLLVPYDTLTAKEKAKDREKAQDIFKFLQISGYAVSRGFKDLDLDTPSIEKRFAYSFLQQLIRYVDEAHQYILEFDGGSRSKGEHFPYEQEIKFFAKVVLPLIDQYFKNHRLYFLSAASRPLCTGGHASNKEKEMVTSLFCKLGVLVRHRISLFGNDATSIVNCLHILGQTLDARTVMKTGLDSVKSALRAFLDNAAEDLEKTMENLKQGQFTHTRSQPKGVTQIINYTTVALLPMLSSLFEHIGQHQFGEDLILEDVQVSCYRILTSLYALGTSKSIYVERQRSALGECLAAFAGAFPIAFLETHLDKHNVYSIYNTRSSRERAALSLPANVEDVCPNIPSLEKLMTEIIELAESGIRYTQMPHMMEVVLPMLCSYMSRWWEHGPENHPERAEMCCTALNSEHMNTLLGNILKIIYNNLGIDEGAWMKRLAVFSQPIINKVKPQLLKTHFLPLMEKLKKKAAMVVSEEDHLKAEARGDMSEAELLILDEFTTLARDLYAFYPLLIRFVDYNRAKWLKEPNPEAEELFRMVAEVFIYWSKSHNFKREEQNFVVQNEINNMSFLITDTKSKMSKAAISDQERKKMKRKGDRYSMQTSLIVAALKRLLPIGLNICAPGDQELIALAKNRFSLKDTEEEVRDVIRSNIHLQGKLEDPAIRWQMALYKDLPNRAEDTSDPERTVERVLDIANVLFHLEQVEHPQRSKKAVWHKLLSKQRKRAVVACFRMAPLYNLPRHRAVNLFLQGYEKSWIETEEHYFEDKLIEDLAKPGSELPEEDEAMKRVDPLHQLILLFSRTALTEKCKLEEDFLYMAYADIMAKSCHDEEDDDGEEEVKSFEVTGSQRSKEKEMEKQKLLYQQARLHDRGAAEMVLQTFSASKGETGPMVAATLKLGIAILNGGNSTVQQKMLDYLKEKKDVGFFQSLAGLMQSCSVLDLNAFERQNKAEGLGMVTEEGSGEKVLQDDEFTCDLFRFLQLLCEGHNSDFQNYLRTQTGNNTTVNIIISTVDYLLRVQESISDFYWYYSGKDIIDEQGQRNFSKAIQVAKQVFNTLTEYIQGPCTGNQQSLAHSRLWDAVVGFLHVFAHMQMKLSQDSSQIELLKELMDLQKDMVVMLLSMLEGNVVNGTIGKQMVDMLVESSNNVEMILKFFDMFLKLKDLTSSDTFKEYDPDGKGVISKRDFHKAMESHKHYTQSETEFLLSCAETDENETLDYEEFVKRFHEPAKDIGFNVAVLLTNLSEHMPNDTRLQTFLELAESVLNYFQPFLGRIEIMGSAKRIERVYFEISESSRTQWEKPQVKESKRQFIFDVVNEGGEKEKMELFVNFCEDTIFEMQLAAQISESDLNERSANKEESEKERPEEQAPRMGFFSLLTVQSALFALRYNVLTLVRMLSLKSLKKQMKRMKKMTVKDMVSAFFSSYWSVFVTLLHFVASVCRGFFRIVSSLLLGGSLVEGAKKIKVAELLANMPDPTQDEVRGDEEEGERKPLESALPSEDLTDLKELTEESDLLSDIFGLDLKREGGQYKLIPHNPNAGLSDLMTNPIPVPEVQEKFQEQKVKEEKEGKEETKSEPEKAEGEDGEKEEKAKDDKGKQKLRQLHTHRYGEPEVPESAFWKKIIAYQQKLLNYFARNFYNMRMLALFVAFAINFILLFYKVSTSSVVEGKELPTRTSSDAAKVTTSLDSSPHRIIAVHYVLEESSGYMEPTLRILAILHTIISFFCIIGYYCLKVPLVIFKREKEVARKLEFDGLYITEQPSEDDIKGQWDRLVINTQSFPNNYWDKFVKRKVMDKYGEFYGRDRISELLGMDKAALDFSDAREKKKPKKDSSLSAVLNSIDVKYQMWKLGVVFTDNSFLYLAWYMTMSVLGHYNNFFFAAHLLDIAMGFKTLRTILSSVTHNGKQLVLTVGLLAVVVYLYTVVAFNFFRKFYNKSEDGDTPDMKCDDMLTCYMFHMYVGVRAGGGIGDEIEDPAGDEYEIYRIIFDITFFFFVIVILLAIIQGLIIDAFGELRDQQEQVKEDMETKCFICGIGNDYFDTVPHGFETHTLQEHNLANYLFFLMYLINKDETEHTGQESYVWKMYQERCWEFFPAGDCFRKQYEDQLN

For “non-fluorescent wild type FKBP12.6 (from UniProt P68106 1-108) (natural protein)”, the decrease in Ca spark amplitude in permeabilized rat myocytes was 15% and the decrease in resting Ca spark frequency (CaSpF) in permeabilized rat myocytes was 24%.

Reference: paper PMC2895429
